Measured values taken from paper PMC12954864.

Target: GST-tag (glutathione S-transferase) freed from GST-ΔN-ATAD2B
Experiment: SEC; Superdex 200 Increase 10/300 GL (ÄKTAprime), ATAD2B sample from E. coli against a molecular-weight standard mixture; peak 1 ~9 ml near thyroglobulin (670 kDa), peak 2 ~15 ml before ovalbumin (44 kDa)

Substance “GST-tag (glutathione S-transferase) freed from GST-ΔN-ATAD2B” has a stoichiometry N of 2.
